This experiment concerns the target T1, Glucose-regulated-protein 78 (GRP78), cell surface (UniProt P11021 19-654, limits assumed).
T1 construct: whole, on cells; The target was endogenous GRP78 on human tumour cell lines; No recombinant GRP78 was used; also called BiP; HSPA5
Kind of experiment: flow cytometry on AML and solid tumor cell lines, Streptavidin PE detection. The text has this: Anti-KDEL antibody for detection of cell surface GRP78 (Abcam, Clone-10C3; Cat. No. ab115638) and Streptavidin PE (BioLegend, San Diego, CA. Cat. No 405204 were used for flow cytometric analysis. A GRP78-binding peptide ([…] (SEQ ID NO: 1)) with an N-terminal Biotin tag (Biotin-Ahx-[…] (SEQ ID NO: 71)) was obtained from Genscript). The following antibodies purchased from BD Biosciences were used for flow cytometry: CD4, CD8, CCR7 FITC, CD45RA APC, CD19 APC, CD19 PE, CD8 APC-H7, CD4-KrO, TIM3 PE-Cy7, LAG3 PE, and PD1 BV605. Recombinant Human ErbB2/Her2 Fc Chimera Protein (R&D Systems, Cat. No 1129-ER) was used to detect HER2 CAR. Half a million Transduced and Non-Transduced T Cells were washed with 1×PBS and the cells were incubated with 3 μL of antibody and Fixable Live Dead aqua stain (Thermo Fisher Scientific, L34965) on ice and protected from light for 30 mins. Cells were washed with 1×PBS+2% FBS. FACS was carried out using FACS Canto II or Lyric (BD Biosciences). The analysis was performed using FlowJo 10.5.3 software (BD Biosciences, San Jose, CA).

Where no end group is shown, it is not given here. The star is where a group is joined. Biotin = O=C1N[C@H]2[C@H](CS[C@H]2CCCCC(=O)*)N1; Ahx = NCCCCCC(=O)O

T1 sequence (P11021 19-654 limits assumed): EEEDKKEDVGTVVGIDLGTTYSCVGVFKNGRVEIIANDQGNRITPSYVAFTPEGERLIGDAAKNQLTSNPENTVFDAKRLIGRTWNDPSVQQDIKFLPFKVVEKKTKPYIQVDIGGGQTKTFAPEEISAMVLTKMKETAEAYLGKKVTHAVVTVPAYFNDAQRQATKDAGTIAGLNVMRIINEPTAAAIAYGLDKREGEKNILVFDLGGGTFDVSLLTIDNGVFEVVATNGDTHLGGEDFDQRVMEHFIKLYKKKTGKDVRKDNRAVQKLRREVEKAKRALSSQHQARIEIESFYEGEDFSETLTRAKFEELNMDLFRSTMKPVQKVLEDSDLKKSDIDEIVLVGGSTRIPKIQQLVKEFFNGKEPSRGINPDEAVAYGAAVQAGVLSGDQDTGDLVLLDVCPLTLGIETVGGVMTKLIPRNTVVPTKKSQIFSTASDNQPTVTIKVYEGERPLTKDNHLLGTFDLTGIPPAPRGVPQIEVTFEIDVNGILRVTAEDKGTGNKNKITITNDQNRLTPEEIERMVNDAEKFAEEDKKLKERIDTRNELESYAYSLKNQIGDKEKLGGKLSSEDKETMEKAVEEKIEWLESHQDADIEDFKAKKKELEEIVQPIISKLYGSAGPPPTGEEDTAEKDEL

B1: biotin-conjugated GRP78-binding peptide (Biotin-Ahx-CTVALPGGYVRVC) (peptide)
peptide: {Biotin-Ahx}-CTVALPGGYVRVC
modifications: cysteine pairing not given here
notes: Synthetic 13-mer from Genscript, detected with Streptavidin PE in flow cytometry; also called biotin-conjugated peptide
For the molecule B1, the binding result was “binds”.

The values are drawn from patent US20230312671A1 (ST JUDE CHILDREN S RESEARCH HOSPITAL, published 2023).
